Source: the supplement of paper PMC9170038

What was measured:
[1] = tested on: K4 kissing-loop RNA reporter; assay: apparent KD of K4 kissing-loop reporter; higher = weaker reporter binding; details: Eterna round: R107;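 further: bound reporter read as fluorescence of individual clusters on recovered sequencing chips by microscopy, with normalized cluster intensities fitted with a binding model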
Protocol: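 RNA-MaP round R107: designed RNA switches with theophylline, tryptophan, arginine or FMN aptamers are transcribed on-chip within common flanks. They are titrated with a labelled K4 kissing-loop RNA reporter in RNA-MaP buffer (100 mM Tris pH 7.5, 80 mM KCl, 4 mM MgCl2), without ligand or with the indicated ligand. Median apparent KD per design.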

MS2 coat protein = assay: apparent KD of MS2 coat protein; designed switch direction (-1 OFF switch, 1 ON switch): -1; higher = weaker reporter binding
How it was run: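 Transcription of designed RNA switches on Illumina chips was done by stalled E. coli RNA polymerase. SNAP-549-labelled MS2 coat protein was then titrated in doubling steps from 0.7 or 1.5 nM to 3 µM, with steps of 0.8–1.5 h at the lowest and 10–20 min at the highest concentration. The per-design median over clusters of curve-fitted normalised fluorescence is reported as apparent KD.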

[2] = input ligand: theophylline 20 uM
[3] = input ligand: tryptophan 2.4 mM
[4] = Eterna round: R95, input ligand: microRNA oligo, concentration not stated
[5] = input ligand: microRNA oligo, concentration not stated
[6] = Eterna round: R95, input ligand: FMN 200 uM
[7] = Eterna round: R95, input ligand: none

Sequence	apparent KD of K4 kissing-loop reporter ([1]; input ligand: FMN 200 uM) [µM]	apparent KD of K4 kissing-loop reporter ([1]; input ligand: arginine 13.2 mM) [µM]	apparent KD of K4 kissing-loop reporter ([1]; input ligand: none) [µM]	apparent KD of K4 kissing-loop reporter [1, 2] [µM]	apparent KD of K4 kissing-loop reporter [1, 3] [µM]	apparent KD of MS2 coat protein (MS2 coat protein; input ligand: FMN 200 uM) [µM]	apparent KD of MS2 coat protein (MS2 coat protein; input ligand: none) [µM]	also measured
UGGAUAUAGUGAUGUUAUAUAGAGAUGGAUACCAGUUUAGAGAAGAGCCCUUGGCAGCCGAAAGAAGUAUCAUUAGAGAAGAAUG [ExTheophyl.Al]	0.257	0.164	0.214	0.212	0.179			
AAACAUUGGUCUGAUACCAGCUUGAUCGGUAAACGAUCUACUGGAGUGAUGUUCCUAAAUAGCCCUUGGCAGCAGACCGAUGAAA [MAT - Same State Theophlline B - Mod of Eli - D6]	0.187	0.172	0.177	0.132	0.181			
AAUAAAAUCACGGCCGCCACUGAUACUAGUAUUAGCAGUGAUGUUGCUAUGUAUAAUUUAUUAAAUAGGACCGGGUGAAUAUUUA [#25 K4 Tryptophan B Exclusion]	0.298	0.22	0.267	0.35	0.256			
GAGGCCAAACGGAGUGAUGUUUCGUAUGAUACCAGCAGCGAAAGCUGCCCUUGGCAGCAUGCCACGGCCUCGGCAGGAAACUGCC	0.401	0.322	0.358	0.371	0.339			
CGCAGUGAUGUUGCUAUUAUUCUUGAUUAACGAGGACCGGUACGGCCGCCACUCGAUUUCUAUCUGAUCCAGUGUUUUGUUGAGU [#22 K4 Tryptophan A Exclusion]	0.296	0.364	0.396	0.36	0.182			
GGGCGCGGCGCGGCCGCCACUGGGCCUGGGCGCUCGCUGAGUGAUGUUCGUCGGCGGCUGGGUCGUAGGACCGGGUGCCGGCUGG [BDazzled - #4 SS Tryptophan B]	0.735	0.533	1.32	0.627	0.269			
GCCGUACGCAUGGAUACCAGCAAGUAUAUAUGCUAGUGAUGUUAGCGCUAUGCGAUGCGGUGCCCUUGGCAGCCAUGCGUACGGC	0.129	0.0852	0.105	0.106	0.102			
UCGGGCGGCUGAAGGAGCGGGCGGGCCCGAGUGAUGUUCGGGUGGGCCGUGAGGCCCGGAGCCCAGGUAGGUCGCGGUUCCGCCC [#2 Same State - Arginine B Attempt #23 (HarryS)]	0.2	0.153	0.188	0.168	0.175			
UAUUUAAGAGGAUAUACAUGAGGAUCACCCAUGUAUAUUAAAAUACAUGAUUUUUUAUGUAGAAGGCUUGGGUA [-21.5, -18.3 kcal, 35% A] (Eterna round: R97, puzzle: Exclusion 3)						0.0236	0.0169	
UCCUAACAUGAGGAUCACCCAUGUGAGGAUAUGAUACUAUGUACUUCGGUACAUAGUAUCAGAAGGCACAUCCU [Ex1-3: 8] (puzzle: Exclusion 1)								apparent KD of MS2 coat protein (MS2 coat protein; [4]): 0.0175 µM
CGGUGCUUCUGGAAACAUGAGGAUCACCCAUGUUGAGUUAGCGAGGAUAUCGGUAACACAUGUCACGAGAAGGCGCGAACCAGA [Ex NG3 #34] (Eterna round: R96, puzzle: Exclusion NG 3)						0.0104	0.0167	apparent KD of MS2 coat protein (MS2 coat protein; [5]): 0.013 µM
UGAGUGCUGCGAGGAUAUACAUGAGGAUCACCCAUGUGGAUGUCUGAGGCUUUGCCUCAGACAAUGUAGAAGGCGCAGUACUCU [JL ENG2 1.21] (Eterna round: R96, puzzle: Exclusion NG 2)						0.0964	0.021	apparent KD of MS2 coat protein (MS2 coat protein; [5]): 0.0142 µM
AAAAAGAGAGGAUAUACAUGAGGAUCACCCAUGUGAGGGCACCGCGGGCGCGGGACCCGUAGAAGGCUCAAAAA [Exc;s3-I] (puzzle: Exclusion 3)								apparent KD of MS2 coat protein (MS2 coat protein; [6]): 0.0165 µM; apparent KD of MS2 coat protein (MS2 coat protein; [4]): 0.0147 µM; apparent KD of MS2 coat protein (MS2 coat protein; [7]): 0.0205 µM
CAGAGGAGACGGAGAUCCAACAUGAGGAUCACCCAUGUCUCAAAAGCUUUUUGCUUGUCUUAUCCUCCUCUCUUCAC [Mat - Sensor, turn-off var - Eli Mod - D59] (Eterna round: R97, puzzle: Sensor, turn-off variant 1)						0.0271	0.0281	
AUUUUGUGAGGAUAUUAGUUUUAUAAUUUUAUUAGUUUAGCUGAGAAGGCACAUGAGGAUCACCCAUGUAAAUC [JR_Ex4_Sub045] (Eterna round: R97, puzzle: Exclusion 4)						0.0425	0.0229	
GGAUCUACUGAGGAUAUUACAUCACCCGACUGAUAAGAAGGCAGAACAUGAGGAUCACCCAUGUGGGUAGCCAC [Polaris5] (Eterna round: R97, puzzle: Exclusion 6)						0.0563	0.0357	
AAACACCAAGGAUAUACAUGAGGAUCACCCAUGUGGUCCGGCACGGGUCUCGAUUCGAGUAGAAGGUGGAUGGG [Eternabot (L1) Solution 80] (Eterna round: R97, puzzle: Exclusion 3)						0.0567	0.0765	
GCCGUAAAUGUGAGGAUAUACCUAUGGAUACAUAGGUAGAAGGCACAUGAGGAUCACCCAUGUCCUUAAUCGGC [Eli BMX r4m3] (Eterna round: R97, puzzle: Brourd's mod of Exclusion 4)						0.73	0.409	
UAGAGACAUGAGGAUCACCCAUGUCAGGAUAUCUGCUUAGACAGGUUCACGGUCUAGUAGAGAAGGGACUGGAG [Eternabot (L2) Solution 42] (Eterna round: R97, puzzle: Exclusion 1)						0.121	0.0874	
GGGAAACAUGAGGAUCACCCAUGUAAGGAUAUGCAAAAGGAUAUAGAAGGAAAAAAAAGCAGAAGGUACAAAGG [salish99-ex1_r3_100] (puzzle: Exclusion 1)								apparent KD of MS2 coat protein (MS2 coat protein; [6]): 0.0688 µM; apparent KD of MS2 coat protein (MS2 coat protein; [4]): 0.0598 µM; apparent KD of MS2 coat protein (MS2 coat protein; [7]): 0.0573 µM
CGUUCCACAGGAUAUACAAAACGUAUCCCAGGGCUAACAGGACAUGAGGAUCACCCAUGUAGAAGGGUGGAACU [Eternabot (L1) Solution 36] (Eterna round: R97, puzzle: Exclusion 2)						0.571	0.674	
ACAUGAGGAUCACCCAUGUGACCACAAUGGCUGAUGUAACGACAGGAUAUUCGUGAAUAUCUAACGAAGAAGGGUCAUGACUGG [Deportation 62 - Jieux - Exclusion NG 3] (Eterna round: R96, puzzle: Exclusion NG 3)						0.0988	0.0602	apparent KD of MS2 coat protein (MS2 coat protein; [5]): 0.0527 µM
